Test system: TALE-TadA8e(V106W) (Escherichia coli)
Test: cell_activity
Details: paired TALE-TadA8e(V106W) without nickase, value is the maximum over three loci

**Q.** Which activity does the source give for MT-ND1 target here?
**A.** Its activity is less than 0.39%.

**Q.** For MT-ND4 target, which activity is on record?
**A.** Its activity is less than 0.39%.

**Q.** How did the activity (barely above sequencing error) turn out when MT-RNR2 target was run?
**A.** The activity was less than 0.39%.

From patent US20260207779
